Test results published in PMC5777889.

Tests used:
Assay in all cases: EMSA
Settings in all cases: buffer, room temperature
HapR (Vibrio cholerae) = tested on: HapR (Vibrio cholerae)
H-NS (Vibrio cholerae) = tested on: H-NS (Vibrio cholerae)
LeuO (Vibrio cholerae) = tested on: LeuO (Vibrio cholerae)

vieSAB promoter -198 to +70
Kd (HapR (Vibrio cholerae)): 0.174 µM

vieSAB promoter, El Tor biotype (EMSA)
Kd (H-NS (Vibrio cholerae)): 0.0523 µM
Kd (LeuO (Vibrio cholerae)): 0.0312 µM

vieSAB promoter, classical biotype (EMSA)
Kd (H-NS (Vibrio cholerae)): 0.0441 µM
Kd (LeuO (Vibrio cholerae)): 0.0312 µM
